One assay deals with T1, Fcγ RI (UniProt P12314 16-288, limits assumed).
T1 construct: also called FcγR1
The assay is described as follows: Biacore. For orientation: SPR reads the build-up and loss of mass on a sensor chip optically.

The next assay addresses T2, Fcγ RIIa, variant 131H (UniProt P12318 36-218, limits assumed).
T2 construct: also called FcγRIIa 131H
T2 sequence (looked up): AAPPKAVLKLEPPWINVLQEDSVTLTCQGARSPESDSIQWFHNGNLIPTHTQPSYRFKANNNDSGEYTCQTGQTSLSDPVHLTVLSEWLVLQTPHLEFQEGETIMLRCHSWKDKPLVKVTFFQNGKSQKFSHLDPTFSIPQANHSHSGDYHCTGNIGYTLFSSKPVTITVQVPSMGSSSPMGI
The assay is described as follows: Biacore.

Another assay concerns the target T3, Fcγ RIIa, variant 131R (UniProt P12318 36-218, limits assumed).
T3 construct: also called FcγRIIa 131R
T3 sequence (looked up): T2 sequence (looked up) with H132R
In words: Biacore.

In a further assay the target is T4, Fcγ RIIb (UniProt P31994 46-217, limits assumed).
T4 sequence (looked up): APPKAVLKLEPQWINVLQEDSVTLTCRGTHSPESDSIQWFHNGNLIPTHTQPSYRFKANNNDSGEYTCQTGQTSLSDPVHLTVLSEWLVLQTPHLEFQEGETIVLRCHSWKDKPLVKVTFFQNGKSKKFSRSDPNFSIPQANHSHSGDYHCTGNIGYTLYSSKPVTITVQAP
In words: Biacore.

Assay [1] concerns the target T5, human TNF-α (human, UniProt P01375 77-233). In words: cell-based or functional assay.
The target in assay [2] is T6, human IL-17A/A homodimer (human, UniProt Q16552 24-155).
T6 sequence: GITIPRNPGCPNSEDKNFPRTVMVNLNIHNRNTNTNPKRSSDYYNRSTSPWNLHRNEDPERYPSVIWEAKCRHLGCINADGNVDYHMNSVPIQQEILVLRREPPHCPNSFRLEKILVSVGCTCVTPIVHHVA
In words: cell-based or functional assay.

The target of assay [3] is T7, human IL-17A/F heterodimer (human, UniProt Q16552 24-155; Q96PD4 31-163).
T7 sequence 1: T6 sequence
T7 sequence 2: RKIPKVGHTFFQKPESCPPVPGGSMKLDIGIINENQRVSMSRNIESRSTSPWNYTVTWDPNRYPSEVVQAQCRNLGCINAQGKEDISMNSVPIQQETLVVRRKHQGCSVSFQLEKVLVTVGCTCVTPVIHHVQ
The assay is described as follows: cell-based or functional assay.

Assay [4] concerns the target T5, human TNF-α. The assay is described as follows: Biacore SPR, recombinant antigen, mean of 3 experiments.
Source text: (§1) The apparent association rate (ka) and dissociation rate (kd) were derived and used to calculate the overall equilibrium dissociation constant (KD) for the interaction.
The target of assay [5] is T6, human IL-17A/A homodimer. The assay is described as above.
Source text: as §1
The target of assay [6] is T7, human IL-17A/F heterodimer. Described as above.
Source text: as §1
Assay [7] deals with T5, human TNF-α. In words: Biacore SPR, 3 experiments; same value as Table 7; unit not printed in Table 10.
Source text: as §1
For assay [8], the target named is T6, human IL-17A/A homodimer. The description is as above.
Source text: as §1

Where a chain is given by its changes, count along the chain named. In names and notes the source's numbering stands.

Results on one molecule are retold here after patent US20160002326A1 (AbbVie / Abbott, published 2016).

Usually Kd stands for the free concentration of one partner at which half of the binding sites on the other are occupied at equilibrium, for simple one-to-one binding. Usually kon stands for a measure of how fast the partners come together. As usually defined, the koff is a measure of how fast the partners let go of each other.

T5 sequence (P01375 77-233 limits assumed): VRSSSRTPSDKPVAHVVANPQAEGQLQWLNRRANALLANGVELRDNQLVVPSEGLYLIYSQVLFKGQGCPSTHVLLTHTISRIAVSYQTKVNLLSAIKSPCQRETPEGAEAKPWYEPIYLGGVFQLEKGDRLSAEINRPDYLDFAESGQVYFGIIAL
T1 sequence (P12314 16-288 limits assumed): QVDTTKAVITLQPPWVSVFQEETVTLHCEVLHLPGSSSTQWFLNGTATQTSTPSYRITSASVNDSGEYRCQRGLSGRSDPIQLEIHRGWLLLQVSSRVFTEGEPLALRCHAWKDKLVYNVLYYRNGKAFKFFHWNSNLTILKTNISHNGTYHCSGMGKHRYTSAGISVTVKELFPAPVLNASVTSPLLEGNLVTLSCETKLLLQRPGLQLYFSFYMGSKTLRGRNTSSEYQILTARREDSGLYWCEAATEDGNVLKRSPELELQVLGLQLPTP

B1: ABBV-257 anti-human TNF and IL-17 DVD-Ig binding protein (bispecific antibody, human IgG1, kappa, L234A L235A)
heavy: EVQLVQSGAEVKKPGASVKVSCKASGYTFANYGIIWVRQAPGQGLEWMGWINTYTGKPTYAQKFQGRVTMTTDTSTSTAYMELSSLRSEDTAVYYCARKLFTTMDVTDNAMDYWGQGTTVTVSSGGGGSGGGGSEVQLVQSGAEVKKPGSSVKVSCKASGYTFTDYEIHWVRQAPGQGLEWMGVNDPESGGTFYNQKFDGRVTLTADESTSTAYMELSSLRSEDTAVYYCTRYSKWDSFDGMDYWGQGTTVTVSSASTKGPSVFPLAPSSKSTSGGTAALGCLVKDYFPEPVTVSWNSGALTSGVHTFPAVLQSSGLYSLSSVVTVPSSSLGTQTYICNVNHKPSNTKVDKKVEPKSCDKTHTCPPCPAPEAAGGPSVFLFPPKPKDQLMISRTPEVTCVVVDVSHEDPEVKFNWYVDGVEVHNAKTKPREEQYNSTYRVVSVLTVLHQDWLNGKEYKCKVSNKALPAPIEKTISKAKGQPREPQVYTLPPSREEMTKNQVSLTCLVKGFYPSDIAVEWESNGQPENNYKTTPPVLDSDGSFFLYSKLTVDKSRWQQGNVFSCSVLHEALHNHYTQKSLSLSPGK
light: DIQMTQSPSSLSASVGDRVTITCRASQDISQYLNWYQQKPGKAPKLLIYYTSRLQSGVPSRFSGSGSGTDFTLTISSLQPEDFATYFCQQGNTWPPTFGQGTKLEIKRGGSGGGGSGDIQMTQSPSSLSASVGDRVTITCRASSGIISYIDWFQQKPGKAPKRLIYATFDLASGVPSRFSGSGSGTDYTLTISSLQPEDFATYYCRQVGSYPETFGQGTKLEIKRTVAAPSVFIFPPSDEQLKSGTASVVCLLNNFYPREAKVQWKVDNALQSGNSQESVTEQDSKDSTYSLSSTLTLSKADYEKHKVYACEVTHQGLSSPVTKSFNRGEC
modifications: N-linked glycans on the heavy chain at the asparagine commonly modified on IgG1 antibodies (fucosylated biantennary oligosaccharides with 0, 1 or 2 galactose residues)
notes: It says the constant region carries L234A, L235A and also T250Q and M428L; also called Anti-IL-17/TNF DVD-Ig Protein
Turning to B1, the binding result in the assay with Fcγ RI is on record as “no binding”; in the assay with Fcγ RIIa, variant 131H, “no binding”; in the assay with Fcγ RIIa, variant 131R, “no binding”; in the assay with Fcγ RIIb, “no binding”. Further, the “Mean IC50, inhibition of TNF-induced lethality of L929 cells” value with human TNF-α [1] is 25 pM. The “Mean IC50, inhibition of IL-17 dependent induction of IL-6 in fibroblasts” value with human IL-17A/A homodimer [2] stood at 26 pM; in [3], 110 pM. Moreover, the Kd in the assay with human TNF-α [4] came out at 4.9 pM; in the assay with human IL-17A/A homodimer [5] it was 3 pM; in assay [6], 14 pM; with human TNF-α [7], 4.9 pM; with human IL-17A/A homodimer [8], 3 pM. For the same molecule, the results for the kon (with human TNF-α [4]; in the assay with human IL-17A/A homodimer [5]; in assay [6]) were 3.3e+06 M⁻¹ s⁻¹, 1.1e+06 M⁻¹ s⁻¹ and 340000 M⁻¹ s⁻¹, respectively. In addition, the koff in the assay with human IL-17A/A homodimer [5] was 3e-06 s⁻¹; in assay [6], 4.8e-06 s⁻¹.
